US9835633

Test system: human apolipoprotein E4
Sequence (chain, as listed by the source): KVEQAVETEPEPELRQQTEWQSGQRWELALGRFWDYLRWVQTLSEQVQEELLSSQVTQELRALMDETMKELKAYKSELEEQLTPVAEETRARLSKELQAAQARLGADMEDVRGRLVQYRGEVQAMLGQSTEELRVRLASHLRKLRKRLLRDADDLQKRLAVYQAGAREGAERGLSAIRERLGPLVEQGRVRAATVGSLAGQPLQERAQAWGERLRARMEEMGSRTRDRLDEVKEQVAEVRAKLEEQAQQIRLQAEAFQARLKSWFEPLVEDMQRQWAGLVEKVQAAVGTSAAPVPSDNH

Substance | apoE fragmentation in NSE-apoE4 primary neurons overexpressing the enzyme
PCSK1 (Protein Convertase, Subtilisin/Kexin-Type-1), overexpressed by transient transfection | A mild increase of apoE fragmentation was also detected in NSE-apoE4 primary neurons overexpressing PCSK1 or PCSK2
PCSK2 (Protein Convertase, Subtilisin/Kexin-Type-2), overexpressed by transient transfection | A mild increase of apoE fragmentation was also detected in NSE-apoE4 primary neurons overexpressing PCSK1 or PCSK2
